Laboratory results: patent publication US7127357 (SALK INSTITUTE FOR BIOLOGICAL STUDIES, dated 2006)
Non-standard residues stand in square brackets, D forms with d. No end group written: not given here. pT = C[C@@H](OP(=O)(O)O)[C@H](N)C(=O)O; pS = N[C@@H](COP(=O)(O)O)C(=O)O

B1: PPApTPP (Myt1-T412), rhodamine-labeled (peptide)
peptide: PPA[pT]PP
modifications: also: tetramethylrhodamine label on an amine
notes: Six-residue peptide derived from human Myt1
B2: PPGpSPP (Myt1-S416), rhodamine-labeled (peptide)
peptide: PPG[pS]PP
modifications: also: tetramethylrhodamine label on an amine
notes: as for B1
B3: STSpTPR (Myt1-T455), rhodamine-labeled (peptide)
peptide: STS[pT]PR
modifications: also: tetramethylrhodamine label on an amine
notes: as for B1
B4: VPRpTPV (Cdc25c-T48), rhodamine-labeled (peptide)
peptide: VPR[pT]PV
modifications: also: tetramethylrhodamine label on an amine
notes: Six-residue peptide derived from human Cdc25c

Biological target: T1, isolated PPIase domain of human Pin1 (human, UniProt Q13526 50-163)
T1 construct: range 50-163; also called Pin1 PPIase domain
T1 sequence (Q13526 50-163 limits assumed): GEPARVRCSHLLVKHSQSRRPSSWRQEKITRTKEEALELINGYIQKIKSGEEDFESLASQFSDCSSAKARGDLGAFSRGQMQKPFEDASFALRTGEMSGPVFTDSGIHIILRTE
Test: fluorescence anisotropy, rhodamine-labeled peptide
Procedure: Binding Analysis. […] Lyophilized peptides were dissolved in 25 mM HEPES-Na^+ (pH 7.5), 100 mM NaCl, 1 mM DTT and stored for short periods of time at −20° C. Peptides were labeled with the amine reactive reagent tetramethylrhodamine-5-(and-6)-isothiocyanate (Molecular Probes, Inc. Eugene, Oreg.) using a 2:1 molar ratio of rhodamine to peptide in 0.1 M sodium bicarbonate (pH 9.0) at ambient temperature for 10 hr. Fluorescence data were collected on a PTI Alphascan spectrofluorimeter (Photon Technology Instruments, Santa Clara, Calif.).

Binder	binding result
B1	no binding
B2	no binding
B3	no binding
B4	no binding
